Measurements published in patent US20240024426A1, “HYPOTENSIVE PHARMACEUTICAL COMPOSITION COMPRISING TRIPLE ACTIVATOR HAVING ACTIVITY FOR ALL OF GLUCAGON, GLP-1, AND GIP RECEPTORS” (HANMI PHARM. CO., LTD., priority 2020, published 2024).
Where a chain is given by its changes, count along the chain named. Bridges are numbered along the chain shown (N, C = ends). Where no end group is shown, it is not given here. [ ]: non-standard residue; d: D form. The star is where a group is joined. Acetyl(2-(4-imidazolyl)) = O=C(Cc1c[nH]cn1)*; Aib = CC(C)(N)C(=O)O

B1: Triple agonist of SEQ ID NO: 42 (peptide)
peptide: Y[Aib]QGTFTSDYSKYLDEKRAKEFVQWLLDHHPSSGQPPPSC
modifications: bridge 16-20
B2: Triple agonist of SEQ ID NO: 43 (peptide)
peptide: Y[Aib]QGTFTSDYSKYLDEKRAKEFVQWLLDHHCSSGQPPPS
modifications: bridge 16-20
B3: Triple agonist of SEQ ID NO: 60 (peptide)
peptide: {Acetyl(2-(4-imidazolyl))}-[Aib]QGTFTSDYSIAMDEKHCKDFVNWLLNTK
modifications: bridge 15-19
B4: Triple agonist of SEQ ID NO: 59 (peptide)
peptide: {Acetyl(2-(4-imidazolyl))}-[Aib]QGTFTSDYSICMDEKHQKDFVNWLLNTK
modifications: bridge 15-19
B5: Triple agonist of SEQ ID NO: 54 (peptide)
peptide: H[Aib]EGTFTSDYSIAMDEIHQKDFVDWLLAEC
modifications: bridge 16-20
B6: Triple agonist of SEQ ID NO: 58 (peptide)
peptide: H[Aib]QGTFTSDYSKYLDEKRQKEFVQWLLNTKC
modifications: bridge 16-20
B7: Triple agonist of SEQ ID NO: 39 (peptide)
peptide: H[Aib]QGTFTSDYSKYLDGQHAQCFVAWLLAGGGPSSGAPPPS
B8: Triple agonist of SEQ ID NO: 5 (peptide)
peptide: H[Aib]QGTFTSDVSSYLLGQQQKEFIAWLVKGGGPSSGAPPPSC
B9: Triple agonist of SEQ ID NO: 36 (peptide)
peptide: H[Aib]QGTFTSDYSKYLCEKRQKEFVQWLLNGGPSSGAPPPSG
modifications: bridge 16-20
B10: Triple agonist of SEQ ID NO: 35 (peptide)
peptide: H[Aib]QGTFTSDYSIAMDEIHQKDFVNWLLNTKC
modifications: bridge 16-20
B11: Triple agonist of SEQ ID NO: 6 (peptide)
peptide: H[Aib]QGTFTSDVSSYLDGQAAKEFVAWLLKGC
B12: Triple agonist of SEQ ID NO: 38 (peptide)
peptide: [Acetyl(2-(4-imidazolyl))][Aib]QGTFTSDKSSYLDERAAQDFVQWLLDGGPSSGAPPPSS
B13: Triple agonist of SEQ ID NO: 4 (peptide)
peptide: H[Aib]QGTFTSDVSSYLLGQQQKEFIAWLVKGC
B14: Triple agonist of SEQ ID NO: 55 (peptide)
peptide: H[Aib]QGTFTSDYSIAMDEIHQKDFVNWLLAQC
modifications: bridge 16-20
B15: Triple agonist of SEQ ID NO: 53 (peptide)
peptide: H[Aib]EGTFTSDYSIAMDEIHQKDFVNWLLAQC
modifications: bridge 16-20
B16: Triple agonist of SEQ ID NO: 34 (peptide)
peptide: H[Aib]QGTFTSDYSKYLDEKRQKEFVNWLLAQKC
modifications: bridge 16-20
B17: Triple agonist of SEQ ID NO: 41 (peptide)
peptide: H[Aib]QGTFTSDKSKYLDECAAQDFVQWLLDGGPSSGAPPPS
B18: Triple agonist of SEQ ID NO: 37 (peptide)
peptide: H[Aib]QGTFTSDYSKYLDECRQKEFVQWLLNGGPSSGAPPPSG
modifications: bridge 16-20
B19: Triple agonist of SEQ ID NO: 44 (peptide)
peptide: HGQGTFTSDCSKQLDGQAAQEFVAWLLAGGPSSGAPPPS
B20: Triple agonist of SEQ ID NO: 46 (peptide)
peptide: B19 peptide with Q13Y, G16E, A18H
B21: Triple agonist of SEQ ID NO: 47 (peptide)
peptide: B19 peptide with Q13Y, A18R
B22: Triple agonist of SEQ ID NO: 45 (peptide)
peptide: B19 peptide with Q13Y, L14M, E21D
B23: Triple agonist of SEQ ID NO: 48 (peptide)
peptide: B19 peptide with Q13Y, A18R, E21D, A24N
B24: Triple agonist of SEQ ID NO: 49 (peptide)
peptide: {Acetyl(2-(4-imidazolyl))}-[Aib]QGTFTSDYSICMDEIHQKDFVNWLLNTK
modifications: bridge 15-19
B25: Triple agonist of SEQ ID NO: 56 (peptide)
peptide: H[Aib]QGTFTSDYSKYLDEKRQKEFVNWLLAQC
modifications: also: ring formation, positions not given here
B26: Triple agonist of SEQ ID NO: 57 (peptide)
peptide: H[Aib]QGTFTSDYSIAMDEIHQKDFVNWLLNTC
modifications: bridge 16-20
B27: Triple agonist of SEQ ID NO: 52 (peptide)
peptide: H[Aib]QGTFTSDYSKYLDEKRQKEFVQWLLDTC
modifications: bridge 16-20
B28: Triple agonist of SEQ ID NO: 51 (peptide)
peptide: H[Aib]QGTFTSDYSKYLDEKRQKEFVQWLLNTC
modifications: bridge 16-20
B29: Triple agonist of SEQ ID NO: 40 (peptide)
peptide: H[Aib]QGTFTSDKSKYLDERACQDFVQWLLDGGPSSGAPPPS
B30: Triple agonist of SEQ ID NO: 50 (peptide)
peptide: H[Aib]QGTFTSDYSKYLDEKRAKEFVQWLLDHHPSSGQPPPSC
modifications: bridge 16-20

Key:
Test in all cases: cell-based or functional assay
human GLP-1 receptor = human GLP-1 receptor (human, UniProt P43220 24-463)
human GCG receptor = human GCG receptor (human, UniProt P47871 26-477)
human GIP receptor = molecular target: T1, human GIP receptor (human, UniProt P48546 22-466)
T1 sequence (looked up): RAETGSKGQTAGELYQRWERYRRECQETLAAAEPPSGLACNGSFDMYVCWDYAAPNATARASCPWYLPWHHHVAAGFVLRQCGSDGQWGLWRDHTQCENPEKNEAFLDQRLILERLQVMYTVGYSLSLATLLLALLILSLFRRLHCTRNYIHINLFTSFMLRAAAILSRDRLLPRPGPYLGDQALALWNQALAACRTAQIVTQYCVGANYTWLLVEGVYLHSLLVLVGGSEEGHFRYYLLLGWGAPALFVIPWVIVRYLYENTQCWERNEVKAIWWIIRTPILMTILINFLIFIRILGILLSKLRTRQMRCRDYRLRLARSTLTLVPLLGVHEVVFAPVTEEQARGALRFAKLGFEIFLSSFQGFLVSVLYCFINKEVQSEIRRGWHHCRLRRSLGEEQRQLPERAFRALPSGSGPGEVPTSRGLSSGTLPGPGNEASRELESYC

human GCG receptor, sequence (P47871 26-477): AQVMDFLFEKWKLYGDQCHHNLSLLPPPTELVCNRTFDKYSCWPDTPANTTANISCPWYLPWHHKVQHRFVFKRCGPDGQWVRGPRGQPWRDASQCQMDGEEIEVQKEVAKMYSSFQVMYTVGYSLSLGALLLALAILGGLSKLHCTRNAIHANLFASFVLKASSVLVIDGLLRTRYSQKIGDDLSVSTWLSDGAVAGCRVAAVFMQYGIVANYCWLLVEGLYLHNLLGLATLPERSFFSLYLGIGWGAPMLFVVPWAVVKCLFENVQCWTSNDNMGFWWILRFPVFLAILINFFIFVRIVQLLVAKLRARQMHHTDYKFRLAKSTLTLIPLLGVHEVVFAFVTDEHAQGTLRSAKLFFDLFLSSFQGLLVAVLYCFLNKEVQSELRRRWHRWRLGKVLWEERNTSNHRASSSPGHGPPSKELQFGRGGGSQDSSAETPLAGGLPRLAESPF

Binder | In vitro activity compared with native peptide (%) vs. GLP-1 (human GLP-1 receptor) | In vitro activity compared with native peptide (%) vs. Glucagon (human GCG receptor) | In vitro activity compared with native peptide (%) vs. GIP (human GIP receptor)
B1 | 33.9% | 206% | 7.8%
B2 | 12.6% | 88.4% | 3.7%
B3 | 106% | < 0.1% | 8.2%
B4 | 40.3% | < 0.1% | 4%
B5 | 30.6% | 1.4% | 0.1%
B6 | 39.1% | 2.6% | 0.2%
B7 | 13.9% | 0.53% | < 0.1%
B8 | 42.1% | < 0.1% | < 0.1%
B9 | 37.4% | 0.39% | 0.2%
B10 | 7.5% | < 0.1% | 1.3%
B11 | 17% | < 0.1% | < 0.1%
B12 | 2.3% | – | –
B13 | 8.5% | < 0.1% | < 0.1%
B14 | 27.1% | 0.7% | 2.4%
B15 | 161% | 8.4% | 1.3%
B16 | 19.1% | 0.92% | 0.6%
B17 | 34.3% | < 0.1% | < 0.1%
B18 | 236% | 6.21% | 2.2%
B19 | 1.3% | < 0.1% | < 0.1%
B20 | 1.4% | < 0.1% | < 0.1%
B21 | 2.4% | < 0.1% | < 0.1%
B22 | 6.6% | < 0.1% | < 0.1%
B23 | 1.5% | < 0.1% | < 0.1%
B24 | 29.8% | < 0.1% | 3.3%
B25 | 57.9% | 4.9% | 0.8%
B26 | 11.7% | < 0.1% | 0.3%
B27 | 44.1% | 7.5% | 0.3%
B28 | 14.4% | 2% | 0.1%
B29 | 75.2% | < 0.1% | < 0.1%
B30 | 67.4% | 50.5% | 2.7%
